PMC2034464 (Nucleic Acids Research, 2007)
One block for each binder: values may come before it.

How the values were obtained:
[1] = biological target: T1, MutLα (MLH1/PMS2 heterodimer) (human, UniProt P40692 1-756; P54278 1-862); experiment: pull-down
[2] = biological target: T1, MutLα (MLH1/PMS2 heterodimer); experiment: ELISA
[3] = biological target: T2, MutSα (MSH2/MSH6 heterodimer) (human, UniProt P43246 1-934; P52701 1-1360); experiment: ELISA
[4] = biological target: T3, MutSβ (MSH2/MSH3 heterodimer) (human, UniProt P43246 1-934; P20585 1-1137); experiment: ELISA
T3 sequence (P43246 whole entry, chain 1 of 2): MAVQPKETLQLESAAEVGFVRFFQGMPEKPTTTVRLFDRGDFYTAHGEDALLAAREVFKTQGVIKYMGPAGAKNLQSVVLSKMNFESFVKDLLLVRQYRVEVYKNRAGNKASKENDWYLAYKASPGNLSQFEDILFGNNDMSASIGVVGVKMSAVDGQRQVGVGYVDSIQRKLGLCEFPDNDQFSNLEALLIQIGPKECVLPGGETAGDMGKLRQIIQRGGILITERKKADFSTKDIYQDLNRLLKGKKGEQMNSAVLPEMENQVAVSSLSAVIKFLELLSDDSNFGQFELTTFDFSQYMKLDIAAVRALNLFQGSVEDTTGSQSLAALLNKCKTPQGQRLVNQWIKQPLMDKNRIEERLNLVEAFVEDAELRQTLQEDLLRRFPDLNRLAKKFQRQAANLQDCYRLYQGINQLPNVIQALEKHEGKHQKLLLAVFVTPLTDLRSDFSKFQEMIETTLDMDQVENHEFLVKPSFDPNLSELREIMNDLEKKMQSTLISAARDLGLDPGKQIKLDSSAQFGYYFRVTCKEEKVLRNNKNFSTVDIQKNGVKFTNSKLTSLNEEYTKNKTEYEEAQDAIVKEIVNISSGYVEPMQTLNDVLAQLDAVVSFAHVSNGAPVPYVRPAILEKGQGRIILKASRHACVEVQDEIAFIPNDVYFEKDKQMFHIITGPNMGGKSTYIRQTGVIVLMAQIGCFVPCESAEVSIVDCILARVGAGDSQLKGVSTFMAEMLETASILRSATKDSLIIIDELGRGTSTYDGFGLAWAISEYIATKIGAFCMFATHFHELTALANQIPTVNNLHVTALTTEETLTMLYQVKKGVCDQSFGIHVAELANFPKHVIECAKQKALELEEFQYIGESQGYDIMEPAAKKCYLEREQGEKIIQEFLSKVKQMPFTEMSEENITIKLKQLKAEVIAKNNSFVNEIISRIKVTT
T3 sequence (P20585 whole entry, chain 2 of 2): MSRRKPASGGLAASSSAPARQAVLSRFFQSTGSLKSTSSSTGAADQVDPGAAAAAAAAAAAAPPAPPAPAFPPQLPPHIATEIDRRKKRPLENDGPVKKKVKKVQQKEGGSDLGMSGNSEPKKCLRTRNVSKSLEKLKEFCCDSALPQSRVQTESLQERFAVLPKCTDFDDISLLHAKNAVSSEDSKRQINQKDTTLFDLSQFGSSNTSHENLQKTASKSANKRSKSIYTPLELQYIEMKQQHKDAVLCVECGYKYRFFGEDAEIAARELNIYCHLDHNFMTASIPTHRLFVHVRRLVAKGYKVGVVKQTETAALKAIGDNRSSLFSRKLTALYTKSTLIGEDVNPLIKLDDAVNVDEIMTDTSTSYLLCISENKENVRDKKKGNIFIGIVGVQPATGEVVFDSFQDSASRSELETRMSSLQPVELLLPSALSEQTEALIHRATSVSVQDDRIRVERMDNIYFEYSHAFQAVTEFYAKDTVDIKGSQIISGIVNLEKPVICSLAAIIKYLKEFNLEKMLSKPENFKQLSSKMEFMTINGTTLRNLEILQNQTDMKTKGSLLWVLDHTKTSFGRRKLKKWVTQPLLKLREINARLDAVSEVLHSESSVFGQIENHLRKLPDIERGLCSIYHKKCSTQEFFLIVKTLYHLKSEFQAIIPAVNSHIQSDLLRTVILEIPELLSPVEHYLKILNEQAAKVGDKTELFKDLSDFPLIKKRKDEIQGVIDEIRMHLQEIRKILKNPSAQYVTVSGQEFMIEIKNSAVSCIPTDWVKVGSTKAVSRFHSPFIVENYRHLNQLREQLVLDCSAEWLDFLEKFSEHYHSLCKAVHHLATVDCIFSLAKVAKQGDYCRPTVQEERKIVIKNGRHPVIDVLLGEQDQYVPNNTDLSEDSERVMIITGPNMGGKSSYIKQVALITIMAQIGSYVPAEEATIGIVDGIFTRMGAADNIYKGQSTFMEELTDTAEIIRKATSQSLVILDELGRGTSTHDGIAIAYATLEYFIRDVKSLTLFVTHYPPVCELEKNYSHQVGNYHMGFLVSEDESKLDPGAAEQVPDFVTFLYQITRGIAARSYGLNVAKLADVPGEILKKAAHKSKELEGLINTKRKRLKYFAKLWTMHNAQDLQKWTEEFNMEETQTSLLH

[5] = biological target: T2, MutSα (MSH2/MSH6 heterodimer); experiment: pull-down
[6] = biological target: T3, MutSβ (MSH2/MSH3 heterodimer); experiment: pull-down

T1 sequence (P40692 whole entry, chain 1 of 2): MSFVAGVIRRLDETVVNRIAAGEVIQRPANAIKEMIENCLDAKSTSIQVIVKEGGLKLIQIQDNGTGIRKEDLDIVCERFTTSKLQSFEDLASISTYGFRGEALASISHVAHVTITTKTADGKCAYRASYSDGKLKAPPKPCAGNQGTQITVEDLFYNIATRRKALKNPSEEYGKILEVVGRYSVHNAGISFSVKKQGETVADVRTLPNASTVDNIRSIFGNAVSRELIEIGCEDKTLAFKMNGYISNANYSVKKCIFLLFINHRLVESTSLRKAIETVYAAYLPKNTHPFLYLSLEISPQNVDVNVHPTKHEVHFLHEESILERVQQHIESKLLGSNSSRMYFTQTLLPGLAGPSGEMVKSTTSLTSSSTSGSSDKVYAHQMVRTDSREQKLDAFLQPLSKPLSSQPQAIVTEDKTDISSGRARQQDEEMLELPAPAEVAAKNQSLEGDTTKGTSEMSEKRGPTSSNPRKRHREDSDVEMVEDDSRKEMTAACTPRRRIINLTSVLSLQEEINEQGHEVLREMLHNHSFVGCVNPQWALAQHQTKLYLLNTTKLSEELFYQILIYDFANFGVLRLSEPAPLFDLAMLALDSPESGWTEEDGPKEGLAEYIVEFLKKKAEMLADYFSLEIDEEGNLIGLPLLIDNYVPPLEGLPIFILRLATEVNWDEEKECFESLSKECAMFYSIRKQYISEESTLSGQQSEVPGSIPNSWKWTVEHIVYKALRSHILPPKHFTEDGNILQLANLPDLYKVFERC
T1 sequence (P54278 whole entry, chain 2 of 2): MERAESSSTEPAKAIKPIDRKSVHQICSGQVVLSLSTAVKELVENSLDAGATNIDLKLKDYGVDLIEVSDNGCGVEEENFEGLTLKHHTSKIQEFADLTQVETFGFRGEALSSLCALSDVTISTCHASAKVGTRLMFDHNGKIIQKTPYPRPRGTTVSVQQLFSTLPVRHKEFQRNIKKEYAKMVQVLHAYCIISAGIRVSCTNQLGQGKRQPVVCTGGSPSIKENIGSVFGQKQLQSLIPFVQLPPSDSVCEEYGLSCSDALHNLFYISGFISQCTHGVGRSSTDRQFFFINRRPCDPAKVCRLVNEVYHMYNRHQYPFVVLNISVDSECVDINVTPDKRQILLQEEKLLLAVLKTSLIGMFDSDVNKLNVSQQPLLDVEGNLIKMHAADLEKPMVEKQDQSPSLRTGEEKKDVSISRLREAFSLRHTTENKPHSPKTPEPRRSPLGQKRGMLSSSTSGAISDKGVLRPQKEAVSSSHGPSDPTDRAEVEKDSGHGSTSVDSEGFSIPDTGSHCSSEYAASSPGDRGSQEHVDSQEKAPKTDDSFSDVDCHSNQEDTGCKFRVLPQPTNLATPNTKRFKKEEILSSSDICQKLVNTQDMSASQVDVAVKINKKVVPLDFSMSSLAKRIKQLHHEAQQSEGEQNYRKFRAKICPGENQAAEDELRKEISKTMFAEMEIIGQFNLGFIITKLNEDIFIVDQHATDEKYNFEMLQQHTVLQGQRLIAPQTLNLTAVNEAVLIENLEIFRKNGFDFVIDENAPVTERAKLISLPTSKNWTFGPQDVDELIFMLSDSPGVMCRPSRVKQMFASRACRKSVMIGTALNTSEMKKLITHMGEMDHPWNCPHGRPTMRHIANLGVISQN

binding result [1]: binds
B1: GST-WRN fragment 51–449 (domain or fragment, human, UniProt Q14191 51-449, looked up)
chain: GSIVYSYDASDCSFLSEDISMSLSDGDVVGFDMEWPPLYNRGKLGKVALIQLCVSESKCYLFHVSSMSVFPQGLKMLLENKAVKKAGVGIEGDQWKLLRDFDIKLKNFVELTDVANKKLKCTETWSLNSLVKHLLGKQLLKDKSIRCSNWSKFPLTEDQKLYAATDAYAGFIIYRNLEILDDTVQRFAINKEEEILLSDMNKQLTSISEEVMDLAKHLPHAFSKLENPRRVSILLKDISENLYSLRRMIIGSTNIETELRPSNNLNLLSFEDSTTGGVQQKQIREHEVLIHVEDETWDPTLDHLAKHDGEDVLGNKVERKEDGFEDGVEDNKLKENMERACLMSLDITEHELQILEQQSQEEYLSDIAYKSTEHLSPNDNENDTSYVIESDEDLEMEML

Kd [2]: 34.9 nM | Kd [3]: 38.5 nM | Kd [4]: 8.8 nM
B2: Recombinant human WRN (Werner syndrome helicase) (natural protein)
chain: not shown

binding result [1]: binds | binding result [5]: binds | binding result [6]: binds
B3: GST-WRN fragment 500–946 (domain or fragment)
chain: not shown

binding result [6]: binds
B4: GST-WRN fragment 949–1432 (domain or fragment, human, UniProt Q14191 949-1432, looked up)
chain: MDDSEDTSWDFGPQAFKLLSAVDILGEKFGIGLPILFLRGSNSQRLADQYRRHSLFGTGKDQTESWWKAFSRQLITEGFLVEVSRYNKFMKICALTKKGRNWLHKANTESQSLILQANEELCPKKLLLPSSKTVSSGTKEHCYNQVPVELSTEKKSNLEKLYSYKPCDKISSGSNISKKSIMVQSPEKAYSSSQPVISAQEQETQIVLYGKLVEARQKHANKMDVPPAILATNKILVDMAKMRPTTVENVKRIDGVSEGKAAMLAPLLEVIKHFCQTNSVQTDLFSSTKPQEEQKTSLVAKNKICTLSQSMAITYSLFQEKKMPLKSIAESRILPLMTIGMHLSQAVKAGCPLDLERAGLTPEVQKIIADVIRNPPVNSDMSKISLIRMLVPENIDTYLIHMAIEILKHGPDSGLQPSCDVNKRRCFPGSEEICSSSKRSKEEVGINTETSSAERKRRLPVWFAKGSDTSKKLMDKTKRGGLFS

binding result [6]: binds
B5: GST-WRN fragment 500–1149 (domain or fragment)
chain: not shown
